The text below walks through data of paper PMC9482650, “Quantitative fragmentomics allow affinity mapping of interactomes” (Nature Communications, 2022).

The chains are these.
T1: MPDZ_11, O75970
T1 sequence (O75970 1720-1817, limits assumed, looked up): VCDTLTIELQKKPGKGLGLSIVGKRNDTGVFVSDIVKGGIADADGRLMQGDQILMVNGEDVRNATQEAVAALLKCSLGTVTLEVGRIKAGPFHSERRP

T2: PARD6G, Q9BYG4
T2 sequence (Q9BYG4 153-261, limits assumed, looked up): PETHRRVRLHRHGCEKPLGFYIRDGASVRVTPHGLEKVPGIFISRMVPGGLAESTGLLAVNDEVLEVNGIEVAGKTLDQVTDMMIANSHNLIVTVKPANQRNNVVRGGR

T3: PDZD2_1, O15018
T3 sequence (O15018 80-192, limits assumed, looked up): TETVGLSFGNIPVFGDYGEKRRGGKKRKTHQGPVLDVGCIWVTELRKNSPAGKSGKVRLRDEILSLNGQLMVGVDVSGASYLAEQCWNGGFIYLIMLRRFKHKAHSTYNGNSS

T4: SYNPO2L, Q9H987
T4 sequence (Q9H987 1-98, limits assumed, looked up): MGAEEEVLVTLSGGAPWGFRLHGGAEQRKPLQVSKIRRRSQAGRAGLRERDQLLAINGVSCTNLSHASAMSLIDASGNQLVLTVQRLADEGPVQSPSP

T5: SHANK2, Q9UPX8
T5 sequence (Q9UPX8 621-730, limits assumed, looked up): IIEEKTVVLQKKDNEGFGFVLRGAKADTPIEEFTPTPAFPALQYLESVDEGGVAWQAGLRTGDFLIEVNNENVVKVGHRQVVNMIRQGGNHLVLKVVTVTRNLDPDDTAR

T6: PTPN13_5, Q12923
T6 sequence (Q12923 1877-1975, limits assumed, looked up): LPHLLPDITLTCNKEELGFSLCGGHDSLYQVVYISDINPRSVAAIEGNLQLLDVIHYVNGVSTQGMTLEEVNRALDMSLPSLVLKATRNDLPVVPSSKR

T7: TJP3_2, O95049
T7 sequence (O95049 190-282, limits assumed, looked up): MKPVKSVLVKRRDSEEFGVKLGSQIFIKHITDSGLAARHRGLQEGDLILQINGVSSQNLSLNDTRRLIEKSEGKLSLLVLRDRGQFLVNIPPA

T8: GIPC1, O14908
T8 sequence (O14908 128-223, limits assumed, looked up): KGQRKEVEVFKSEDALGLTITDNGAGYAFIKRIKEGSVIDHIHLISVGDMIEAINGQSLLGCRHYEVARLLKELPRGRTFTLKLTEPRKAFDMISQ

T9: MPDZ_3, O75970
T9 sequence (O75970 372-473, limits assumed, looked up): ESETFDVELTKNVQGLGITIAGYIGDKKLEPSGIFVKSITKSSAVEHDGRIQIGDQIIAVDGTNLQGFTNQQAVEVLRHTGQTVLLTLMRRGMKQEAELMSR

T10: PDZD7_2, Q9H5P4
T10 sequence (Q9H5P4 205-303, limits assumed, looked up): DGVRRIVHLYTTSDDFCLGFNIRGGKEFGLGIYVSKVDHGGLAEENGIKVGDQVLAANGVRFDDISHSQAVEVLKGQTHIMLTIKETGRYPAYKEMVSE

T11: MPP1, Q00013
T11 sequence (Q00013 66-162, limits assumed, looked up): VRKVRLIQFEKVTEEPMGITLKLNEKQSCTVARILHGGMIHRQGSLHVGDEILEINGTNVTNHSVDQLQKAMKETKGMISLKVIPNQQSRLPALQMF

T12: USH1C_3, Q9Y6N9
T12 sequence (Q9Y6N9 447-547, limits assumed, looked up): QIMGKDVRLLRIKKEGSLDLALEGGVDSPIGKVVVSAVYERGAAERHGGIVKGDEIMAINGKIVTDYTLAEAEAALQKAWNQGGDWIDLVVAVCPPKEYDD

T13: NHERF1_1, O14745
T13 sequence (O14745 9-104, limits assumed, looked up): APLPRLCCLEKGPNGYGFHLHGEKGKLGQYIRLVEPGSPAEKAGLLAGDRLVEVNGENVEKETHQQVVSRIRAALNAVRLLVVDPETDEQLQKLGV

T14: PDZRN3_2, Q9UPQ7
T14 sequence (Q9UPQ7 414-513, limits assumed, looked up): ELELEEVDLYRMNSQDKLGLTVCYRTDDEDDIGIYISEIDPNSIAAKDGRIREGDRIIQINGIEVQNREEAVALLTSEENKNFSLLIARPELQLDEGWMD

B1: CBP, Q92793 (peptide)
chain: TGDTLEKFVEGL
B2: MAP2K2, P36507 (peptide)
chain: QPGTPTRTAV
B3: RPS6KA1, Q15418 (peptide)
chain: RRVRKLPSTTL

IL16_2, Q14005, sequence (Q14005 350-450): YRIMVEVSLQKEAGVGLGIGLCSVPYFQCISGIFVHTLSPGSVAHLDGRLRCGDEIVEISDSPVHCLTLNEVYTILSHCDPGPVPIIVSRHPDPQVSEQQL
NHERF2_1, Q15599, sequence (Q15599 9-91): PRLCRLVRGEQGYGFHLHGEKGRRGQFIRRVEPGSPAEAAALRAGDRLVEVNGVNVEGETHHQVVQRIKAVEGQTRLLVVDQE

The first assay concerns the target NHERF2_1, Q15599. Nature of the assay: holdup assay. The arrangement: key: below the threshold = too weak to quantify, mostly under pKd 3.1 to 4. As to conditions: plain residues with an end cap or a label only (N-terminal biotin on a linker: ttds).
Turning to B1, the pKd – broadly, −log10 of the Kd, conventionally taken in molar units – turned out to be 3.84.
In the case of B2, the pKd result was “below the threshold”.
As for B3, the pKd result is listed as “below the threshold”.

Another assay has as its target T1, MPDZ_11, O75970. Briefly: holdup assay. Conditions: plain residues with an end cap or a label only (N-terminal biotin on a linker: ttds). The arrangement: key: below the threshold = too weak to quantify, mostly under pKd 3.1 to 4.
In the case of B1, the pKd entry is reported as “below the threshold”.
B2: the pKd result is “below the threshold”.
The molecule B3 had a pKd of 3.58.

For another assay, the target named is MAGI1_4, Q96QZ7. Briefly: holdup assay. On the set-up: key: below the threshold = too weak to quantify, mostly under pKd 3.1 to 4. As to conditions: plain residues with an end cap or a label only (N-terminal biotin on a linker: ttds).
MAGI1_4, Q96QZ7, sequence (Q96QZ7 other isoform, or with tags, fused parts or gaps): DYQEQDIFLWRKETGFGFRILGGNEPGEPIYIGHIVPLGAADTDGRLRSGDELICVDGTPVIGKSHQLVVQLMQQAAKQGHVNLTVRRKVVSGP
As for B2, the pKd entry is on record as “below the threshold”.
As for B3, the pKd entry is “below the threshold”.

In another assay the target is CNKSR3, Q6P9H4. Briefly: holdup assay. The arrangement: key: below the threshold = too weak to quantify, mostly under pKd 3.1 to 4. As to conditions: plain residues with an end cap or a label only (N-terminal biotin on a linker: ttds).
CNKSR3, Q6P9H4, sequence (Q6P9H4 203-303): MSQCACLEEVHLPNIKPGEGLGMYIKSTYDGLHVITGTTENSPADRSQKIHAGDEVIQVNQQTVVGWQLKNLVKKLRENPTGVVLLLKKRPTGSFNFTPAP
With B1, the pKd result is “below the threshold”.
The molecule B2 returned a pKd of 4.05.
Turning to B3, the pKd entry is “below the threshold”.

Another assay has as its target IL16_2, Q14005. Briefly: holdup assay. As to conditions: plain residues with an end cap or a label only (N-terminal biotin on a linker: ttds). On the set-up: key: below the threshold = too weak to quantify, mostly under pKd 3.1 to 4.
As to B1, the pKd entry is on record as “below the threshold”.
For the molecule B2, the pKd result is “below the threshold”.
For the molecule B3, the pKd result was “below the threshold”.

In another assay the target is CARD14, Q9BXL6. Nature of the assay: holdup assay. On the set-up: key: below the threshold = too weak to quantify, mostly under pKd 3.1 to 4. As to conditions: plain residues with an end cap or a label only (N-terminal biotin on a linker: ttds).
CARD14, Q9BXL6, sequence (Q9BXL6 558-663): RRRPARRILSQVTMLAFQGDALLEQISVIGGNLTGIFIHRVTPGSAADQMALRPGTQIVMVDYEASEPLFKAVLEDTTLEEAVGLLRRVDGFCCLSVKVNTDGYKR
Take B1: the pKd entry was “below the threshold”.
On to B2, for which the pKd entry is on record as “below the threshold”.
On to B3, for which the pKd entry is reported as “below the threshold”.

The target in the next assay is T2, PARD6G, Q9BYG4. Briefly: holdup assay. Conditions: plain residues with an end cap or a label only (N-terminal biotin on a linker: ttds). The arrangement: key: below the threshold = too weak to quantify, mostly under pKd 3.1 to 4.
Molecule B1 came in with a pKd of 3.82.
On to B2, for which the pKd result is “below the threshold”.
With B3, the pKd result is recorded as “below the threshold”.

A further assay addresses T3, PDZD2_1, O15018. Briefly: holdup assay. On the set-up: key: below the threshold = too weak to quantify, mostly under pKd 3.1 to 4. Conditions: plain residues with an end cap or a label only (N-terminal biotin on a linker: ttds).
Turning to B1, the pKd result is on record as “below the threshold”.
Same read-out and setting: the result for B2 reads “below the threshold”; that for B3, “below the threshold”.

For the next assay, the target named is T4, SYNPO2L, Q9H987. Nature of the assay: holdup assay. As to conditions: plain residues with an end cap or a label only (N-terminal biotin on a linker: ttds). On the set-up: key: below the threshold = too weak to quantify, mostly under pKd 3.1 to 4.
As to B1, the pKd result is given as “below the threshold”.
Consider B2, for which the pKd entry is on record as “below the threshold”.
Turning to B3, the pKd entry is “below the threshold”.

The target in a further assay is T5, SHANK2, Q9UPX8. Nature of the assay: holdup assay. On the set-up: key: below the threshold = too weak to quantify, mostly under pKd 3.1 to 4. As to conditions: plain residues with an end cap or a label only (N-terminal biotin on a linker: ttds).
Take B1: the pKd result is recorded as “below the threshold”.
With B2, the negative-log Kd (pKd) result was “below the threshold”.

For a further assay, the target named is DVL2, O14641. Nature of the assay: holdup assay. On the set-up: key: below the threshold = too weak to quantify, mostly under pKd 3.1 to 4. As to conditions: plain residues with an end cap or a label only (N-terminal biotin on a linker: ttds).
DVL2, O14641, sequence (O14641 260-359): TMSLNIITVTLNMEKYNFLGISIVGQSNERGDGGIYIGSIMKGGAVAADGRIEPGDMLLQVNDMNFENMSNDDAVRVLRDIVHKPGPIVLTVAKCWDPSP
On to B1, for which the pKd result is “below the threshold”.
Still for that read-out and setting: the result for B2 reads 4.8; that for B3, “below the threshold”.

The next assay addresses T6, PTPN13_5, Q12923. Nature of the assay: holdup assay. On the set-up: key: below the threshold = too weak to quantify, mostly under pKd 3.1 to 4. Conditions: plain residues with an end cap or a label only (N-terminal biotin on a linker: ttds).
Consider B1, for which the pKd result is given as “below the threshold”.
B2: the pKd entry was “below the threshold”.
Turning to B3, the pKd was 3.84.

A further assay concerns the target T7, TJP3_2, O95049. Nature of the assay: holdup assay. As to conditions: plain residues with an end cap or a label only (N-terminal biotin on a linker: ttds). The arrangement: key: below the threshold = too weak to quantify, mostly under pKd 3.1 to 4.
Take B1: the pKd was 3.95.
As for B2, the pKd result is listed as “below the threshold”.
B3: the pKd result is reported as “below the threshold”.

The next assay has as its target T8, GIPC1, O14908. Briefly: holdup assay. As to conditions: plain residues with an end cap or a label only (N-terminal biotin on a linker: ttds). On the set-up: key: below the threshold = too weak to quantify, mostly under pKd 3.1 to 4.
As for B1, the pKd result was “below the threshold”.
B2: the pKd result is on record as “below the threshold”.
With B3, the pKd result is listed as “below the threshold”.

A further assay deals with T9, MPDZ_3, O75970. Briefly: holdup assay. The arrangement: key: below the threshold = too weak to quantify, mostly under pKd 3.1 to 4. As to conditions: plain residues with an end cap or a label only (N-terminal biotin on a linker: ttds).
B1 gave a pKd of 4.11.
As to B2, the pKd entry is “below the threshold”.
On the same count and under the same terms, to B3 belongs 3.81.

Another assay deals with T10, PDZD7_2, Q9H5P4. Nature of the assay: holdup assay. On the set-up: key: below the threshold = too weak to quantify, mostly under pKd 3.1 to 4. As to conditions: plain residues with an end cap or a label only (N-terminal biotin on a linker: ttds).
For the molecule B1, the pKd result is recorded as “below the threshold”.
Consider B2, for which the pKd result is given as “below the threshold”.
B3: the pKd result is reported as “below the threshold”.

In a further assay the target is SCRIB_4, Q14160. Briefly: holdup assay. On the set-up: key: below the threshold = too weak to quantify, mostly under pKd 3.1 to 4. Conditions: plain residues with an end cap or a label only (N-terminal biotin on a linker: ttds).
SCRIB_4, Q14160, sequence (Q14160 1095-1204): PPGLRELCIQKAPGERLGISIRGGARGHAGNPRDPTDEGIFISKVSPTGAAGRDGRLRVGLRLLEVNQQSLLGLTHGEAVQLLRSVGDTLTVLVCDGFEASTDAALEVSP
Consider B1, for which the pKd result is on record as “below the threshold”.
B2: the negative-log Kd (pKd) entry was “below the threshold”.
In the case of B3, the pKd result was “below the threshold”.

In the next assay the target is T11, MPP1, Q00013. Briefly: holdup assay. On the set-up: key: below the threshold = too weak to quantify, mostly under pKd 3.1 to 4. As to conditions: plain residues with an end cap or a label only (N-terminal biotin on a linker: ttds).
With B1, the pKd result is “below the threshold”.
The same measure, in the same setting: the result for B2 reads 4.12; that for B3, “below the threshold”.

In another assay the target is T12, USH1C_3, Q9Y6N9. Nature of the assay: holdup assay. The arrangement: key: below the threshold = too weak to quantify, mostly under pKd 3.1 to 4. As to conditions: plain residues with an end cap or a label only (N-terminal biotin on a linker: ttds).
Take B2: the pKd entry is “below the threshold”.
For the molecule B3, the pKd result is “below the threshold”.

Another assay deals with DLG5_2, Q8TDM6. Briefly: holdup assay. The arrangement: key: below the threshold = too weak to quantify, mostly under pKd 3.1 to 4. As to conditions: plain residues with an end cap or a label only (N-terminal biotin on a linker: ttds).
DLG5_2, Q8TDM6, sequence (Q8TDM6 714-800): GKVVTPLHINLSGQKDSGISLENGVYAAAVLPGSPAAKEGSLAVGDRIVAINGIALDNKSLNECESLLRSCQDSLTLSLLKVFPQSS
As for B1, the pKd entry is “below the threshold”.
For B2, the pKd result was “below the threshold”.
In the case of B3, the pKd entry is “below the threshold”.

For a further assay, the target named is T13, NHERF1_1, O14745. Nature of the assay: holdup assay. On the set-up: key: below the threshold = too weak to quantify, mostly under pKd 3.1 to 4. As to conditions: plain residues with an end cap or a label only (N-terminal biotin on a linker: ttds).
Molecule B1 displayed a pKd of 4.09.
As to B2, the pKd result was “below the threshold”.
B3: the pKd result is given as “below the threshold”.

The next assay concerns the target T14, PDZRN3_2, Q9UPQ7. Briefly: holdup assay. The arrangement: key: below the threshold = too weak to quantify, mostly under pKd 3.1 to 4. Conditions: plain residues with an end cap or a label only (N-terminal biotin on a linker: ttds).
For B2, the pKd result is “below the threshold”.
For B3, the pKd entry is “below the threshold”.
